Target: peptide encoding HTP-3 closure motif #4 (C. elegans)
Test: fluorescence polarisation; 50 nM N-terminal FITC-Ahx peptide plus indicated amounts of HIM-3 (WT or R93Y); 20 mM Tris pH 7.5, 300 mM NaCl, 10% glycerol, 1 mM DTT, 0.1% NP-40; 60 minutes at room temperature; triplicate; single-site binding model

B1: HIM-3 (wildtype, residues 2-291) (natural protein)
chain: ATKEQIVEHRESEIPIASQWKATFPVDLEIEKNSEMFALRYIKCASAFILDRRGILDEKCFKTRTIDKLLVTAFQSSVPAAKRVSSTFDGLRDAIQQGYLREFAIVFYKKPNEEDINEVFAFRFAYGDEGEIFVSLNNGIDTNESSQELLQAKFVDTDNTKQMFASTIKKLHRCIKKMEPLPQGSDASFRVSYTEKAPKDYTPEGYLLSPMFYTLNQDIRKASIGIVCGGHHKIQMLAASQYLKQDFDLDKTTTLNPNMSIMANQSKRKGRISRDSPYGLSQGITKKNKD
Which Kd does the source give for B1 here?
Its Kd is 0.22 µM.

B2: HIM-3^R93Y (residues 2-291) (natural protein)
chain: ATKEQIVEHRESEIPIASQWKATFPVDLEIEKNSEMFALRYIKCASAFILDRRGILDEKCFKTRTIDKLLVTAFQSSVPAAKRVSSTFDGLYDAIQQGYLREFAIVFYKKPNEEDINEVFAFRFAYGDEGEIFVSLNNGIDTNESSQELLQAKFVDTDNTKQMFASTIKKLHRCIKKMEPLPQGSDASFRVSYTEKAPKDYTPEGYLLSPMFYTLNQDIRKASIGIVCGGHHKIQMLAASQYLKQDFDLDKTTTLNPNMSIMANQSKRKGRISRDSPYGLSQGITKKNKD
Which Kd does the source give for B2 here?
Its Kd is 0.69 µM.
